Patent publication US10487348B2, “3-alpha-hydroxysteroid dehydrogenase mutants and process for the preparation of ursodeoxycholic acid” (Pharmazell GmbH, priority 2014, dated 2019)
Positions count from the first letter of the chain named. Numbers in names are those of the source. Entries after “also recorded” stand apart in the source; their conditions may differ. Like-named read-outs stand apart in the source and are kept apart here. Marks after values point to notes of the source that are not given here.

Assays:
[1] = substrate: C[C@H](CCC(=O)O)[C@H]1CC[C@H]2[C@@H]3C(=O)C[C@@H]4CC(=O)CC[C@]4(C)[C@H]3CC(=O)[C@]12C; assay: cells, lysate or membranes named; conditions: pH 8.0, 25.0 °C
[2] = tested on: 3α-HSDH; substrate DHCA; assay type: biochemical, Comamonas testosteroni
[3] = target: 3α-HSDH; substrate DHCA (Comamonas testosteroni, UniProt P80702, R34N); assay type: biochemical; conditions: versus wild type
[4] = target: 3α-HSDH; substrate DHCA (Comamonas testosteroni, UniProt P80702, L68A/R34N); assay type: biochemical; conditions: purified enzyme
[5] = tested on: 3α-HSDH; substrate DHCA; assay type: biochemical, Comamonas testosteroni; conditions: substrate DHCA; FIGS. 8A-8B; listed as dual mutant
[6] = target: T1, 3α-HSDH; substrate DHCA (Comamonas testosteroni, UniProt P80702); assay type: biochemical
T1 sequence (P80702 whole entry, looked up): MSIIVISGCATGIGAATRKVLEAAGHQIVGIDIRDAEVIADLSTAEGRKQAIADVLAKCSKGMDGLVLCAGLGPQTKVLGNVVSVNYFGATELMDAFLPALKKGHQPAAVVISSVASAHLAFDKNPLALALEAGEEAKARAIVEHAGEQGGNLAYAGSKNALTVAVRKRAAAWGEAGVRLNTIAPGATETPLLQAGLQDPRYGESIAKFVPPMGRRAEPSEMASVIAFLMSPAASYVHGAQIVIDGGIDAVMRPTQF

[7] = substrate: NC(=O)C1=CN([C@@H]2O[C@H](COP(=O)(O)OP(=O)(O)OC[C@H]3O[C@@H](n4cnc5c(N)ncnc54)[C@H](O)[C@@H]3O)[C@@H](O)[C@H]2O)C=CC1; assay: purified protein, by the assay type; conditions: other: Table 15, substrate NADH; without tag; apparent values; pH 8.0; 25.0 °C
[8] = substrate: NC(=O)C1=CN([C@@H]2O[C@H](COP(=O)(O)OP(=O)(O)OC[C@H]3O[C@@H](n4cnc5c(N)ncnc54)[C@H](O)[C@@H]3O)[C@@H](O)[C@H]2O)C=CC1; assay: Michaelis-Menten kinetics of wild-type 3α-HSDH with N-terminal His tag; assay type: biochemical, Comamonas testosteroni; conditions: other: Table 15, substrate NADH, apparent values, pH 8.0
From the text: The His-tag allows for very simple purification of the HSDH protein since this sequence is bound with high specificity by specific chromatographic material (NTA (Ni-nitrilotriacetate)-modified support material, loaded with divalent nickel ions, for example “His Pur Ni-NTA” (Nimagen B. V., Nijmegen, The Netherlands)). To this end, the cell-free crude extract is applied to a dropping column comprising this material, which dropping column has previously been equilibrated with the disruption buffer (3 to 5 column volumes). Weakly binding protein was removed by washing with 3 to 5 column volumes of wash buffer (20 mM imidazole, 50 mM sodium phosphate, 300 mM NaCl, pH 8). The His-tag-3α-HSDH protein was eluted with imidazole-comprising elution buffer (250 mM imidazole, 50 mM sodium phosphate, 300 mM NaCl, pH 8). The process was carried out at room temperature. The imidazole which was present was to be removed by buffer exchange.
(§1) The activity of the 3α-HSDH and of the mutants was determined using a photometric assay, where the decrease in absorbance was measured at 340 nm over a period of 30 seconds.
(§2) The targeted exchange of amino acid radicals was performed analogously to Example 2B.
Following cultivation and expression, the cells were harvested, and the specific activities of the cell-free crude extracts were determined at substrate concentrations of 10 mM DHCA. The enzyme variants where the activity measurements with crude extract enzyme were most promising were purified by means of Ni-NTA chromatography, […] In addition, an expression check by means of SDS PAGE was carried out for all mutants.

[9] = substrate: C[C@H](CCC(=O)O)[C@H]1CC[C@H]2[C@@H]3C(=O)C[C@@H]4CC(=O)CC[C@]4(C)[C@H]3CC(=O)[C@]12C; assay: Kinetics of 3α-HSDH [T188G], N-terminal His tag; assay type: biochemical, Comamonas testosteroni; conditions: other: Table 14, substrate DHCA, apparent values, pH 8.0
Description: as §1, §2
Following cultivation and expression, the cells were harvested, and the specific activities of the cell-free crude extracts were determined at substrate concentrations of 10 mM DHCA. The enzyme variants where the activity measurements with crude extract enzyme were most promising were purified by means of Ni-NTA chromatography, and their kinetic constants were determined by measurements with different DHCA concentrations of between 10 μM and 20 mM. In addition, an expression check by means of SDS PAGE was carried out for all mutants.

[10] = Table 4, variants modified at position 34
[11] = Table 9, crude extract, dual mutant position 34 and 68
[12] = Table 7, variants modified at position 68
[13] = other: crude extract (without His tag), DHCA, read from the diagram

B1: Comamonas testosteroni 3α-HSDH, wild type, C-terminal 9×His tag (SEQ ID NO: 51) (Comamonas testosteroni) (protein)
chain: MSIIVISGCATGIGAATRKVLEAAGHQIVGIDIRDAEVIADLSTAEGRKQAIADVLAKCSKGMDGLVLCAGLGPQTKVLGNVVSVNYFGATELMDAFLPALKKGHQPAAVVISSVASAHLAFDKNPLALALEAGEEAKARAIVEHAGEQGGNLAYAGSKNALTVAVRKRAAAWGEAGVRLNTIAPGATETPLLQAGLQDPRYGESIAKFVPPMGRRAEPSEMASVIAFLMSPAASYVHGAQIVIDGGIDAVMRPTQFLEHHHHHHHHH
Km ([1]; other: His tag length 9, DHCA 10 μM-10 mM, NADH 0.2 mM, purified): 70.5 ± 14.2 µM

B2: 3α-HSDH [R34N] (protein)
chain: MSIIVISGCATGIGAATRKVLEAAGHQIVGIDINDAEVIADLSTAEGRKQAIADVLAKCSKGMDGLVLCAGLGPQTKVLGNVVSVNYFGATELMDAFLPALKKGHQPAAVVISSVASAHLAFDKNPLALALEAGEEAKARAIVEHAGEQGGNLAYAGSKNALTVAVRKRAAAWGEAGVRLNTIAPGATETPLLQAGLQDPRYGESIAKFVPPMGRRAEPSEMASVIAFLMSPAASYVHGAQIVIDGGIDAVMRPTQFLEHHHHHH
Specific activity [2, 10]: 3.0 U/mg | Volumetric activity [2, 10]: 58.0 U/ml | activity improved (best mutant at position 34) [3]: approx. 3 fold

B3: 3α-HSDH [R34N/L68A] (protein)
chain: B2 chain with L68A
Specific activity [2, 11]: 4.5 U/mg | Volumetric activity [2, 11]: 139.7 U/ml | increase of the maximum activity over the wild type [4]: approx. 25% | activity compared with the wild type with His tag (courses of Michaelis-Menten kinetics) [5]: not being quite as active as the wild type at low substrate concentrations; also recorded: markedly higher activities than the wild-type enzyme at higher substrate concentrations

B4: 3α-HSDH (WT): Comamonas testosteroni 3α-HSDH wild type, C-terminally extended by His-Tag LEHHHHHH (SEQ ID NO: 5) (protein)
chain: B2 chain with N34R
modifications: C-terminal His-tag LEHHHHHH
Specific activity [2, 10]: 2.1 U/mg | Volumetric activity [2, 10]: 38.0 U/ml | Specific activity [2, 12]: 2.1 U/mg | Volumetric activity [2, 12]: 44.9 U/ml | Specific activity [2, 11]: 2.1 U/mg | Volumetric activity [2, 11]: 44.9 U/ml | substrate excess inhibition [6]: no longer demonstrates the pronounced substrate excess inhibition

B5: Comamonas testosteroni 3α-HSDH, wild type, without His tag, SEQ ID NO:4 (Comamonas testosteroni) (protein)
chain: T1 sequence (P80702 whole entry, looked up)
Km [7]: 46.9 ± 5.9 µM | Vmax [7]: 186 µmol/min/mg | kcat [7]: 88.5 s⁻¹ | kcat/Km [7]: 1.88e+06 M⁻¹ s⁻¹ | Km [1, 13]: 200* μM | Vmax [1, 13]: 25 µmol/min/mg

B6: Crude extract (without His tag): non-tagged wild-type 3α-HSDH of Comamonas testosteroni (SEQ ID NO: 4) (protein, listed as Comamonas testosteroni)
chain: T1 sequence (P80702 whole entry, looked up)
DHCA concentration at which maximum activity is reached [6]: approximately 1 mM

B7: Comamonas testosteroni 3α-HSDH, wild type, N-terminal hexahistidine tag (Comamonas testosteroni) (protein)
chain: T1 sequence (P80702 whole entry, looked up)
Km [8]: 59.2 ± 6.9 µM | Vmax [8]: 109 µmol/min/mg | kcat [8]: 47.1 s⁻¹ | kcat/Km [8]: 796000 M⁻¹ s⁻¹

B8: Comamonas testosteroni 3α-HSDH mutant [T188G], N-terminal hexahistidine tag (Comamonas testosteroni; T188G) (protein)
chain: T1 sequence (P80702 whole entry, looked up) with T188G
Km [9]: 1458 ± 182.6 µM | Vmax [9]: 20.3 ± 0.8 U/mg | kcat [9]: 9.6 s⁻¹
